The values that follow come from patent US20200231671A1 (E R SQUIBB AND SONS L L C, published 2020).

Holding throughout (test): peptide scan ELISA
(In general: ELISA stands for enzyme-linked immunosorbent assay.)

Assay [1] concerns the target T1, LAG-3 extra loop scan peptide GPPAAAPGHPLA (human, also: conjugated to biotin, site not given here).
T1 construct: 12-mer overlapping scan peptide of the extra loop
T1 peptide: GPPAAAPGHPLA
Here is the method:
(§1) In the LAG-3 protein, the immunoglobulin-like first domain of the extracellular region contains an exposed “extra loop” having the amino acid sequence: […] (SEQ ID NO: 79). To examine the binding of 25E3, 25F7, 8B7 and 26H10 to this region of LAG-3, and map the epitope bound by each antibody, a peptide scan experiment was performed across this region. A series of 10 overlapping peptides that scanned across the full length of the extra loop sequence were prepared and conjugated to biotin. For ELISA analysis, microtiter plates pre-coated with streptavidin (Sigma-Aldrich, Cat # M5432) were used to capture the biotinylated loop peptide-conjugates applied in a 100 μl volume at a concentration of 2 μg/mL and incubated 18 hours at 4° C., after which the plates were washed 3 times and blocked at room temperature for 1 hour with blocking buffer (1×PBS+10% FBS). Next, human anti-LAG-3 antibodies serially diluted 3-fold in blocking buffer from 10 μg/mL were applied and the plates were incubated at room temperature for 2 hours and then washed three times. To detect bound human antibody a HRP-conjugated goat anti-human kappa light chain antibody (Bethyl Laboratories, Cat # A80-115P) was diluted to 1 μg/mL in blocking buffer and applied to assay wells for 1 hour followed by three washes and application of TMB substrate (eBioscience, Cat #00-4201-56). Optical density readings at 650 nm wavelength were made on a Spectramax 340PC spectrophotometer ([…].).

Assay [2] has as its target T2, LAG-3 extra loop scan peptide APSSWGPRPRRY (human, also: conjugated to biotin, site not given here).
T2 construct: 12-mer overlapping scan peptide of the extra loop
T2 peptide: APSSWGPRPRRY
Here is the method: as §1

Assay [3] concerns the target T3, LAG-3 extra loop scan peptide PAAAPGHPLAPG (human, also: conjugated to biotin, site not given here).
T3 construct: 12-mer overlapping scan peptide of the extra loop
T3 peptide: PAAAPGHPLAPG
Here is the method: as §1

For assay [4], the target named is T4, LAG-3 extra loop scan peptide HPLAPGPHPAAP (human, also: conjugated to biotin, site not given here).
T4 construct: 12-mer overlapping scan peptide of the extra loop
T4 peptide: HPLAPGPHPAAP
Here is the method: as §1

Assay [5] has as its target T5, LAG-3 extra loop scan peptide AAPGHPLAPGPH (human, also: conjugated to biotin, site not given here).
T5 construct: 12-mer overlapping scan peptide of the extra loop
T5 peptide: AAPGHPLAPGPH
Here is the method: as §1

Assay [6] concerns the target T6, LAG-3 extra loop scan peptide LAPGPHPAAPSS (human, also: conjugated to biotin, site not given here).
T6 construct: 12-mer overlapping scan peptide of the extra loop
T6 peptide: LAPGPHPAAPSS
Here is the method:
as §1

Assay [7] concerns the target T7, LAG-3 extra loop scan peptide PGHPLAPGPHPA (human, also: conjugated to biotin).
T7 construct: 12-mer overlapping scan peptide of the extra loop
T7 peptide: PGHPLAPGPHPA
Here is the method:
as §1

Where no end group is shown, it is not given here.

B1: 26H10 human monoclonal antibody (antibody, IgG1, V domains shown)
VH: QVQLVESGGGVVQPGRSLRLSCAASGFTFSSYGMHWVRQAPGKGLEWVAVIWYDGSNKYYADSVKGRFTISRDNSKNTLYLQMNSLRAEDTAVYYCAREWAVASWDYGMDVWGQGTTVTVSS
VL: not shown
notes: also called 26H10-FITC
Turning to B1, the binding result in assay [1], in assay [2], in assay [3], in assay [4], in assay [5] and in assay [6] was “no binding (tested: 10 µg/mL)” throughout. Besides, in assay [7], the binding result is on record as “no binding (tested: 10 µg/mL)”.

B2: 25E3 human monoclonal antibody (antibody, IgG1, V domains shown)
VH: EVQLVESGGGVVRPGGSLRLSCAASGFTFDDYGMSWVRQAPGKGLEWVSGINWNGGSTYYADSVKGRFTISGDNAKNSLYLQMNSLRAEDTALYYCTTGGYWGQGTLVTVSS
VL: AIQLTQSPSSLSASVGDRVTITCRASQGIRSALAWYQQKPGKAPKLLIYDASSLESGVPSRFSGSGSGTDFTLTISSLQPEDFATYYCQQFNSYPYTFGQGTKLEIK
With B2, the binding result in assay [3], in assay [5] and in assay [7] was “binds” throughout.
